The source of these data is PMC4770247.

Data set [1] deals with T1, NRF2;MAFG (human?;human?, UniProt Q16236;O15525 1-605;1-162, |). The data set is described as follows: protein binding microarray, anti-NRF2 detection.
The target in data set [2] is T1, NRF2;MAFG. The data set is described as follows: protein binding microarray, anti-NRF2 detection. The source holds these as a separate data set.

Positions count from the first letter of the chain named.

B1: NQO1.ARE (dsDNA)
DNA 1: CCGCAGTCACAGTGACTCAGCAGAATCTGAGCCACCCAACCGCCCAACTT
DNA 2: AAGTTGGGCGGTTGGGTGGCTCAGATTCTGCTGAGTCACTGTGACTGCGG
modifications: 3' biotin on top strand; nick in top strand between nt 33 and 34
As for B1, in the data set with NRF2;MAFG [1], the binding signal was 1 relative to NQO1.ARE.

B2: 7A (dsDNA)
DNA 1: B1 DNA 1 with C18A
DNA 2: B1 DNA 2 with G33T
modifications: 3' biotin on top strand; nick in top strand between nt 33 and 34
In the case of B2, the binding result in the data set with NRF2;MAFG [2] is reported as “binds”.
